No end group written: not given here.
Key:
[1] = biological target: T1, BMP-12 (Homo sapiens, UniProt Q7Z4P5); assay: Filter-plate binding and elution of BMP-12 on peptide-coupled affinity resins
T1 sequence (Q7Z4P5 322-450): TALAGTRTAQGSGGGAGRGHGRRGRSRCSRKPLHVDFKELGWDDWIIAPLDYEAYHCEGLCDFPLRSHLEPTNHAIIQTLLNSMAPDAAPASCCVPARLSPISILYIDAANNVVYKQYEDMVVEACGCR
Description: The coupled resins, plus an unconjugated resin for use as a control, were suspended in 16% ethanol, 150 mM NaCl, and 20 mM Tris buffer at pH 7.5 at a 25% v/v ratio (e.g., […]). A Tecan liquid-handling robot was employed to aliquot 200 μL of each slurry into one of eight rows of a 96 well polystyrene filter plate (0.45 μm hydrophilic filters, Whatman catalog number 770-1806). Spinning at 1200 g for 3 min removed the liquid phase, leaving 50 μL of wet resin on the filters. The resins were then equilibrated with the loading buffers listed in Table 6 (K is a coefficient characterizing the strength of protein binding to a particular resin in a particular buffer). […] The resins were loaded by transferring 150 μL from the load plate to the filter plate and then incubating 20 min on a shaking platform to facilitate binding. The filter plate was spun down and the filtrate collected in a 96 well UV plate. The protein concentration in the filtrate, or flow-through, was calculated as (A280-A320)/1.3. The filter plate was then washed with 150 μL of 100 mM acetic acid, followed by 150 μL of 4M guanidine-HCl and 50 mM sodium acetate at pH 4.0. The protein concentration was measured in the new filtrate as described above. […] However, for peptides 750 and 751, the binding was strong in 25 mM MES at pH 6 but weak in 50 mM acetic acid with 0.1 M NaCl at pH 3.0, which can allow an efficient binding-elution process without the need for chaotrops or organic reagents. Flow-through and acetic acid elution samples from column 4 of the plate (loaded with MES pH 6) were analyzed on a gel (FIG. 14).

[2] = biological target: T2, BMP-12 (UniProt Q7Z4P5 322-450, limits assumed); assay: peptide resin, filter plate; load 5: 25 mM HEPES pH 7.0
T2 construct: also called BMP12/GDF7
T2 sequence (looked up): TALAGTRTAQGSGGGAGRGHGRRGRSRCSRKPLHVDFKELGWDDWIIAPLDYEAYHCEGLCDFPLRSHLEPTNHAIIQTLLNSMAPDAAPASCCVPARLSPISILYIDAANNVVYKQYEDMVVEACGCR
Description: (§1) The coupled resins, plus an unconjugated resin for use as a control, were suspended in 16% ethanol, 150 mM NaCl, and 20 mM Tris buffer at pH 7.5 at a 25% v/v ratio (e.g., 25% ethanol, 75% Tris buffer). A Tecan liquid-handling robot was employed to aliquot 200 μL of each slurry into one of eight rows of a 96 well polystyrene filter plate (0.45 μm hydrophilic filters, Whatman catalog number 770-1806). Spinning at 1200 g for 3 min removed the liquid phase, leaving 50 μL of wet resin on the filters. The resins were then equilibrated with the loading buffers listed in Table 6 (K is a coefficient characterizing the strength of protein binding to a particular resin in a particular buffer). […] The resins were loaded by transferring 150 μL from the load plate to the filter plate and then incubating 20 min on a shaking platform to facilitate binding. The filter plate was spun down and the filtrate collected in a 96 well UV plate. The protein concentration in the filtrate, or flow-through, was calculated as $(A280-A320)/1.3$. The filter plate was then washed with 150 μL of 100 mM acetic acid, followed by 150 μL of 4M guanidine-HCl and 50 mM sodium acetate at pH 4.0. The protein concentration was measured in the new filtrate as described above. […] Flow-through and acetic acid elution samples from column 4 of the plate (loaded with MES pH 6) were analyzed on a gel (FIG. 14).

[3] = biological target: T2, BMP-12; assay: peptide resin, filter plate; load 3: 25 mM Na Acetate pH 5.0
Description: as §1

[4] = biological target: T2, BMP-12; assay: peptide resin, filter plate; load 12: 50 mM Tris, 0.1 M NaCl, 20% MPD, pH 8.0
Description: as §1

[5] = biological target: T2, BMP-12; assay: peptide resin, filter plate; load 1: 50 mM Acetic Acid, 0.1 M NaCl, pH 2.9
Description: as §1

[6] = biological target: T2, BMP-12; assay: peptide resin, filter plate; load 11: 50 mM Tris, 0.25 M NaCl, 30% MPD, pH 8.0
Description: as §1

[7] = biological target: T2, BMP-12; assay: peptide resin, filter plate; load 2: 50 mM Acetic Acid, 0.1 M NaCl, pH 4.0
Description: as §1

[8] = biological target: T2, BMP-12; assay: peptide resin, filter plate; load 10: 50 mM Tris, 0.1 M NaCl, 40% MPD, pH 8.0
Description: as §1

[9] = biological target: T2, BMP-12; assay: peptide resin, filter plate; load 4: 25 mM MES pH 6.0
Description: as §1

[10] = biological target: T2, BMP-12; assay: peptide resin, filter plate; load 6: 1M CHES pH 9.7
Description: as §1

[11] = loaded in condition 1: 50 mM Acetic Acid, 0.1 M NaCl, pH 2.9
[12] = loaded in condition 2: 50 mM Acetic Acid, 0.1 M NaCl, pH 4.0
[13] = loaded in condition 3: 25 mM Na Acetate pH 5.0
[14] = loaded in condition 4: 25 mM MES pH 6.0
[15] = loaded in condition 5: 25 mM HEPES pH 7.0
[16] = 50 mM acetic acid with 0.1 M NaCl at pH 3.0

Molecule | Yield (BMP-12 recovered from resin) [1, 11] | Yield (BMP-12 recovered from resin) [1, 12] | Yield (BMP-12 recovered from resin) [1, 13] | Yield (BMP-12 recovered from resin) [1, 14] | Yield (BMP-12 recovered from resin) [1, 15] | binding of BMP12 by resin coupled to peptide ([1]; loading buffers 1-5) | 100 mM HAc elution K [2] | 100 mM HAc elution conc [2] | 4M Gnd, 50 mM NaAc pH 4 Strip Conc [2] | Flow-through K [2] | Flow-through conc [2] | 100 mM HAc elution K [3] | 100 mM HAc elution conc [3] | 4M Gnd, 50 mM NaAc pH 4 Strip Conc [3] | Flow-through K [3] | Flow-through conc [3] | Flow-through K [4] | Flow-through conc [4] | 100 mM HAc elution K [5] | 100 mM HAc elution conc [5] | further results
Ac-LYV**SDVGWNDWIVK (Ac-LYVSDVGWNDWIVK; not fully specified (residue 3); printed as Ac-LYV**SDVGWNDWIVK) [Peptide 746] | 91% | 88% | 97% | 87% | 100% |  |  |  |  |  |  |  |  |  |  |  |  |  |  |  | 
Ac-VAPPGYHAFYSHGEK [Peptide 745] | 100% | 103% | 105% | 116% | 103% |  |  |  |  |  |  |  |  |  |  |  |  |  |  |  | 
Ac-RDLGWQDWIIAPEGYAAFYSDGEK [BMP5 peptide 748] |  |  |  |  |  |  | 2 | 0.257 mg/mL | 0.105 mg/ml | 23 | 0.055 mg/mL | 2 | 0.264 mg/mL | 0.14 mg/ml | 57 | 0.024 mg/mL | 1 | 0.383 mg/mL | 6 | 0.123 mg/mL | 4M Gnd, 50 mM NaAc pH 4 Strip Conc [5]: 0.177 mg/ml; Flow-through K [5]: 11; Flow-through conc [5]: 0.106 mg/mL; Flow-through K [6]: 1; Flow-through conc [6]: 0.375 mg/mL; 100 mM HAc elution K [7]: 6; 100 mM HAc elution conc [7]: 0.151 mg/mL; 4M Gnd, 50 mM NaAc pH 4 Strip Conc [7]: 0.229 mg/ml; Flow-through K [7]: 59; Flow-through conc [7]: 0.023 mg/mL; Flow-through K [8]: 1; Flow-through conc [8]: 0.407 mg/mL; 100 mM HAc elution K [9]: 2; 100 mM HAc elution conc [9]: 0.304 mg/mL; 4M Gnd, 50 mM NaAc pH 4 Strip Conc [9]: 0.091 mg/ml; Flow-through K [9]: 62; Flow-through conc [9]: 0.022 mg/mL; Flow-through K [10]: -1; Flow-through conc [10]: 0.626 mg/mL
Ac-LYVDFSDVGWNDWIVAPPGYHAFYSHGEK [BMP2 Full peptide 747] |  |  |  |  |  |  | 1 | 0.255 mg/mL | 0.074 mg/ml | 11 | 0.103 mg/mL | 2 | 0.274 mg/mL | 0.111 mg/ml | 28 | 0.046 mg/mL | 0 | 0.438 mg/mL | 6 | 0.123 mg/mL | 4M Gnd, 50 mM NaAc pH 4 Strip Conc [5]: 0.15 mg/ml; Flow-through K [5]: 10; Flow-through conc [5]: 0.114 mg/mL; Flow-through K [6]: 0; Flow-through conc [6]: 0.45 mg/mL; 100 mM HAc elution K [7]: 6; 100 mM HAc elution conc [7]: 0.147 mg/mL; 4M Gnd, 50 mM NaAc pH 4 Strip Conc [7]: 0.15 mg/ml; Flow-through K [7]: 47; Flow-through conc [7]: 0.029 mg/mL; Flow-through K [8]: 0; Flow-through conc [8]: 0.482 mg/mL; 100 mM HAc elution K [9]: 1; 100 mM HAc elution conc [9]: 0.324 mg/mL; 4M Gnd, 50 mM NaAc pH 4 Strip Conc [9]: 0.065 mg/ml; Flow-through K [9]: 38; Flow-through conc [9]: 0.035 mg/mL; Flow-through K [10]: -1; Flow-through conc [10]: 0.659 mg/mL
Ac-ELGWDDWIIAPLDYEAYHSEGLK [BMP12 N-trun_1S peptide 749] |  |  |  |  |  |  | 1 | 0.28 mg/mL | 0.093 mg/ml | 9 | 0.116 mg/mL | 2 | 0.275 mg/mL | 0.126 mg/ml | 42 | 0.032 mg/mL | 1 | 0.404 mg/mL | 6 | 0.098 mg/mL | 4M Gnd, 50 mM NaAc pH 4 Strip Conc [5]: 0.141 mg/ml; Flow-through K [5]: 5; Flow-through conc [5]: 0.175 mg/mL; Flow-through K [6]: 0; Flow-through conc [6]: 0.416 mg/mL; 100 mM HAc elution K [7]: 4; 100 mM HAc elution conc [7]: 0.175 mg/mL; 4M Gnd, 50 mM NaAc pH 4 Strip Conc [7]: 0.196 mg/ml; Flow-through K [7]: 26; Flow-through conc [7]: 0.05 mg/mL; Flow-through K [8]: 0; Flow-through conc [8]: 0.434 mg/mL; 100 mM HAc elution K [9]: 1; 100 mM HAc elution conc [9]: 0.321 mg/mL; 4M Gnd, 50 mM NaAc pH 4 Strip Conc [9]: 0.079 mg/ml; Flow-through K [9]: 56; Flow-through conc [9]: 0.025 mg/mL; Flow-through K [10]: -1; Flow-through conc [10]: 0.653 mg/mL

More lines, main results first:

Yield (BMP-12 recovered from resin) [1, 11] | Yield (BMP-12 recovered from resin) [1, 12] | Yield (BMP-12 recovered from resin) [1, 13] | Yield (BMP-12 recovered from resin) [1, 14] | Yield (BMP-12 recovered from resin) [1, 15] | binding of BMP12 by resin coupled to peptide ([1]; loading buffers 1-5) | 100 mM HAc elution K [2] | 100 mM HAc elution conc [2] | 4M Gnd, 50 mM NaAc pH 4 Strip Conc [2] | Flow-through K [2] | Flow-through conc [2] | 100 mM HAc elution K [3] | 100 mM HAc elution conc [3] | 4M Gnd, 50 mM NaAc pH 4 Strip Conc [3] | Flow-through K [3] | Flow-through conc [3] | Flow-through K [4] | Flow-through conc [4] | 100 mM HAc elution K [5] | 100 mM HAc elution conc [5] | Molecule | further results
86% | 88% | 90% | 88% | 102% | high affinity |  |  |  |  |  |  |  |  |  |  |  |  |  |  | Ac-ELGWDDWIIAPLDYEAYHSEGLK [Peptide 749] | 
81% | 68% | 90% | 88% | 90% | high affinity |  |  |  |  |  |  |  |  |  |  |  |  |  |  | Ac-LYVDFSDVGWNDWIVAPPGYHAFYSHGEK [Peptide 747] | 
85% | 84% | 89% | 87% | 87% | high affinity |  |  |  |  |  |  |  |  |  |  |  |  |  |  | Ac-RDLGWQDWIIAPEGYAAFYSDGEK [Peptide 748] | 
100% | 93% | 96% | 85% | 109% |  |  |  |  |  |  |  |  |  |  |  |  |  |  |  | Ac-SDVGWNDWIVAPPGYHAFYCHGEK [Peptide 750] | binding of BMP12 by resin coupled to peptide ([1]; 25 mM MES at pH 6): strong; binding of BMP12 by resin coupled to peptide [1, 16]: weak
104% | 97% | 100% | 92% | 107% |  |  |  |  |  |  |  |  |  |  |  |  |  |  |  | Ac-SDVGWNDWIVAPPGYHAFYSHGEK [Peptide 751] | binding of BMP12 by resin coupled to peptide ([1]; 25 mM MES at pH 6): strong; binding of BMP12 by resin coupled to peptide [1, 16]: weak
